This note sets out measurements from patent US7151087 (US Dept. of Health and Human Services, dated 2006).

B1: MCP-3 (ligand)
chain: not shown
notes: also called unlabeled MCP-3
B2: MIP-1α (ligand, human, UniProt P10147 23-92, looked up)
chain: ASLAADTPTACCFSYTSRQIPQNFIADYFETSSQCSKPGVIFLTKRSRQVCADPSEEWVQKYVSDLELSA
notes: also called unlabeled MIP-1α
B3: CC CKR2B, stably expressed on HEK 293 cells (receptor)
chain: MLSTSRSRFIRNTNESGEEVTTFFDYDYGAPCHKFDVKQIGAQLLPPLYSLVFIFGFVGNMLVVLILINCKKLKCLTDIYLLNLAISDLLFLITLPLWAHSAANEWVFGNAMCKLFTGLYHIGYFGGIFFIILLTIDRYLAIVHAVFALKARTVTFGVVTSVITWLVAVFASVPGIIFTKCQKEDSVYVCGPYFPRGWNNFHTIMRNILGLVLPLLIMVICYSGILKTLLRCRNEKKRHRAVRVIFTIMIVYFLFWTPYNIVILLNTFQEFFGLSNCESTSQLDQATQVTETLGMTHCCINPIIYAFVGEKFRRYLSVFFRKHITKRFCKQCPVFYRETVDGVTSTNTPSTGEQEVSAGL
notes: also called CCR2b
B4: RANTES (ligand, human, UniProt P13501 24-91, looked up)
chain: SPYSSDTTPCCFAYIARPLPRAHIKEYFYTSGKCSNPAVVFVTRKNRQVCANPEKKWVREYINSLEMS
notes: also called unlabeled RANTES
B5: MIP-1β (ligand, human, UniProt P13236 24-92, looked up)
chain: APMGSDPPTACCFSYTARKLPRNFVVDYYETSSLCSQPAVVFQTKRSKQVCADPSESWVQEYVYDLELN

The target of assay [1] is T1, CC CKR1, stably expressed on HEK 293 cells (Homo sapiens (Human), UniProt P32246 1-355).
T1 construct: also called CC CKLR1
T1 sequence: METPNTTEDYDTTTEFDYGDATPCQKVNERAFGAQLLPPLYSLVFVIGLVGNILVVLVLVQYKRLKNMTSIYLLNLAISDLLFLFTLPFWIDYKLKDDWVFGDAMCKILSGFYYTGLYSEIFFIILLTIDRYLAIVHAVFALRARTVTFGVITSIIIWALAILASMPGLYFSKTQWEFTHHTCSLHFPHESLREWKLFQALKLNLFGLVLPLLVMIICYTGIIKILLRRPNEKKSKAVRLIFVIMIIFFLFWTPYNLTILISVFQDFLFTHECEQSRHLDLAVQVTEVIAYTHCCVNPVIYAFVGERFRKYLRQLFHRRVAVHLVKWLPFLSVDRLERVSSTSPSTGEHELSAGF
Briefly: radioligand binding at 37° C. to CC CKR1-transfected HEK 293 cells.
Description: (§1) After incubation for 1 h at 4° C. or 37° C., unbound chemokines were separated from cells by pelleting through a 10% sucrose/PBS cushion, and the cell-associated counts were determined.

Assay [2] concerns the target T2, CC chemokine receptor 5 (CCR5), clone 8.5 cDNA, stably expressed on HEK 293 cells (human, UniProt P51681 1-352).
T2 construct: also called CC CKR5; CCR5 transfectants
Nature of the assay: homologous competition against ^125I-MIP-1α on CCR5.1 cells.
Description: as §1

The target in assay [3] is T1, CC CKR1, stably expressed on HEK 293 …. Nature of the assay: homologous competition against ^125I-MIP-1α on CC CKR1 cells.
Description: as §1
Assay [4] has the same target. Briefly: homologous competition against ^125I-MIP-1α; reference CCR5.1 cells.
Description: as §1
For assay [5] the target is unchanged. Nature of the assay: heterologous competition against ^125I-RANTES on CC CKR1 cells, 37° C.
Description: as §1
Assay [6] has the same target. Nature of the assay: homologous competition against ^125I-MIP-1α on CC CKR1-transfected HEK 293 cells, 4° C.
Description: as §1
Each of the six CCR5 transfectants were tested at 4° C.
In the assay “MIP-1α” the target is B2. Briefly: radioligand binding to intact transfected HEK 293 cells, 0.2 nM ^125I-chemokine.
Description: as §1
The assay “MIP-1β” addresses B5. The description is as above.
Description: as §1
The assay “RANTES” addresses B4. The description is as above.
Description: as §1
The target of assay [7] is T1, CC CKR1, stably expressed on HEK 293 …. Briefly: radioligand binding at 37° C. to CC CKR1 cells.
Description: as §1
In assay [8] the target is T2, CC chemokine receptor 5 (CCR5), clone …. Briefly: homologous competition against ^125I-MIP-1β on CCR5.1 cells.
Description: as §1
Assay [9] concerns the target T1, CC CKR1, stably expressed on HEK 293 …. Nature of the assay: homologous competition against ^125I-MIP-1β on CC CKR1 cells.
Description: as §1
Assay [10] addresses T2, CC chemokine receptor 5 (CCR5), clone …. Briefly: homologous competition against ^125I-MIP-1β; reference CC CKR1 cells.
Description: as §1

T2 sequence (P51681 whole entry): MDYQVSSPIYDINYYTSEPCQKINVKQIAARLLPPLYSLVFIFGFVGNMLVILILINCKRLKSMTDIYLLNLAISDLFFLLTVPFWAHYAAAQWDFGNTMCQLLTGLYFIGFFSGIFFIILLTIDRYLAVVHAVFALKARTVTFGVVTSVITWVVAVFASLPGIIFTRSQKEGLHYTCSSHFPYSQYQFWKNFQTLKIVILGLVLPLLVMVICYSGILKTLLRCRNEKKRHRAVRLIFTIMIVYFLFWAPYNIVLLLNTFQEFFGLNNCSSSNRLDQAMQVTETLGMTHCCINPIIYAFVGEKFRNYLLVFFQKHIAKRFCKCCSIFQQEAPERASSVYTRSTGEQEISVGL

As for B1, the binding result in [1] is “binds”.

By IC50 is commonly meant the point on the concentration scale where inhibition reaches its midpoint. By Ki is commonly meant a measure of affinity in units of concentration, obtained from inhibition or displacement. Lower therefore signals tighter binding. In the case of B2, the IC50 was approximately 100 nM in assay [2], approximately 5 nM in assay [3] and approximately 20 nM in assay [5]. For the same molecule, in [4], the “fold more effective competition on CC CKR1 than on CCR5.1” value turned out to be 20 fold. This molecule registered a Ki in assay [6] of 10 nM.

For B3, the binding result in the assay with MIP-1α, in the assay with MIP-1β and in the assay with RANTES was “no binding” throughout.

In the case of B4, in [7], the binding result was “binds”.

In the case of B5, the IC50 in assay [8] was approximately 100 nM; in [9] it was approximately 200 nM. Further, the “fold more effective competition on CCR5.1 than on CC CKR1” value in assay [10] was approximately 2 fold.
